Measured values published in article PMC10267580 (2023).

What was measured:
[1] = target: Rab6B^Q72L, GTPase domain (residues 8-176), constitutively active mutant (mouse, UniProt P61294 8-176, Q72L); experiment: ITC
[2] = target: Rab6B^Q72L L11E, GTPase domain (mouse, UniProt P61294 8-176, Q72L | L11E); experiment: ITC
Sequence of Rab6B^Q72L L11E, GTPase domain (P61294 8-176 L11E/Q72L): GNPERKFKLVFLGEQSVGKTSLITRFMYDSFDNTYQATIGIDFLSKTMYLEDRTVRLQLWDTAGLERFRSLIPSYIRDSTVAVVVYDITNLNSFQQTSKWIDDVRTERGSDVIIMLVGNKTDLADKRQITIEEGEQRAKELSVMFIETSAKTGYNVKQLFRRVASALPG

Sequence of Rab6B^Q72L, GTPase domain (residues 8-176), constitutively active mutant (P61294 8-176 Q72L): as the sequence (P61294 8-176 L11E/Q72L) above, with E4L counted along it

Kd [1] [µM]	Kd [2] [µM]	Binder
26	–	ELKS1_RBD S868A (domain or fragment) RKHLEEVLEMKQEALLAAIAEKDANIALLELSSSKKKTQEEVAALKREKDRLVQQLKQQTQNRMKLMADNYEDD
–	> 50	ELKS1_RBD, Rab-binding domain of ELKS1 (residues 849-922) (domain or fragment) RKHLEEVLEMKQEALLAAISEKDANIALLELSSSKKKTQEEVAALKREKDRLVQQLKQQTQNRMKLMADNYEDD
